From publication PMC9772228, “Structure of a RecT/Redβ family recombinase in complex with a duplex intermediate of DNA annealing”
Numbering of substitutions follows the chain as printed.

Experiments:
Experiment in all cases: EMSA; little to no detectable; EMSA: PBS pH 7.4 (or KH2PO4/10 mM MgCl2 pH 6.0), 3.6 or 5 uM protein, 25 uM nt DNA, 37 C 15 min per strand, 0.8% agarose 1x TBE; cryo-EM: 20 mM KH2PO4 (Results: 10 mM), 10 mM MgCl2 pH 6.0, 37 C; native MS: 100 mM ammonium acetate pH 7, 37 C
Conditions in all cases: protein: recombinant, tags: N-terminal 6His vector tag (20 aa) retained, chain copies: 10
[1] = molecular target: T1, LiRecT K111A/K215A (Listeria innocua CLIP 11262, UniProt Q92FL9 1-271, K111A;K215A)
T1 sequence: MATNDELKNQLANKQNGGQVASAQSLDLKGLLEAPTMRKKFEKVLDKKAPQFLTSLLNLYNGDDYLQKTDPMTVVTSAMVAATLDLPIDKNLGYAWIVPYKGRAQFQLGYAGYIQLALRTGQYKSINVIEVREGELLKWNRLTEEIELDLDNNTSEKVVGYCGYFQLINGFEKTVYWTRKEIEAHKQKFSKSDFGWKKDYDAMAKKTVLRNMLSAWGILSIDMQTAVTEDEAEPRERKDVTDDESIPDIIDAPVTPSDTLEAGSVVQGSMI

[2] = molecular target: T2, LiRecT R210A/K215A (Listeria innocua CLIP 11262, UniProt Q92FL9 1-271, R210A;K215A)
T2 sequence: T1 sequence with A111K, R210A

[3] = molecular target: T3, LiRecT K206E (Listeria innocua CLIP 11262, UniProt Q92FL9 1-271, K206E)
T3 sequence: T1 sequence with A111K, K206E, A215K

[4] = molecular target: T4, LiRecT K206A/R210A (Listeria innocua CLIP 11262, UniProt Q92FL9 1-271, K206A;R210A)
T4 sequence: T1 sequence with A111K, K206A, R210A, A215K

[5] = molecular target: T5, LiRecT K206A/K215A (Listeria innocua CLIP 11262, UniProt Q92FL9 1-271, K206A;K215A)
T5 sequence: T1 sequence with A111K, K206A

[6] = label: 5'-Cy3;5'-Cy5, 49 bp, 1 nt 5' overhang at each end

Measured: binding result

CCATCCGCAAAAATCGAGCTATGCAGGGCGATTCTGCTCTAAGCCATCCG (ssDNA) [Cy5-50mer]
no binding: [1]; label: 5'-Cy5, single strand | [2]; label: 5'-Cy5, single strand | [3]; label: 5'-Cy5, single strand | [4]; label: 5'-Cy5, single strand | [5]; label: 5'-Cy5, single strand

GCGGATGGCTTAGAGCAGAATCGCCCTGCATAGCTCGATTTTTGCGGATG (ssDNA) [Cy3-50mer]
no binding: [1]; label: 5'-Cy3, single strand | [2]; label: 5'-Cy3, single strand | [3]; label: 5'-Cy3, single strand | [4]; label: 5'-Cy3, single strand | [5]; label: 5'-Cy3, single strand

B1: 50-mer duplex intermediate (sequential addition) (dsDNA)
DNA 1: GCGGATGGCTTAGAGCAGAATCGCCCTGCATAGCTCGATTTTTGCGGATG
DNA 2: CCATCCGCAAAAATCGAGCTATGCAGGGCGATTCTGCTCTAAGCCATCCG
no binding: [1]; [6] | [2]; [6] | [3]; [6] | [4]; [6] | [5]; [6]
